Data set [1] addresses T1, I-LtrI (Leptographium truncatum, UniProt C7SWF3 C7SWF3:407-712).
T1 sequence: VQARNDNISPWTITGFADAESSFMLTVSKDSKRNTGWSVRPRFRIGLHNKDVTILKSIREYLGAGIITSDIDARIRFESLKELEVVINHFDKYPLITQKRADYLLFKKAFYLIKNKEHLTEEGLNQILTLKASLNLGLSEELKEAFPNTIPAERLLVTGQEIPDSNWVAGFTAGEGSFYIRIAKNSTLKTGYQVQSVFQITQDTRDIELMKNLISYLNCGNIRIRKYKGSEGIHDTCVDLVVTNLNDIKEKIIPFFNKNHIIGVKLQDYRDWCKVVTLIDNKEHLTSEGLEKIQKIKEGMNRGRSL
Nature of the data set: structure; co-crystal structure at 2.7 A (PDB 3R7P). Conditions: overhang ends. The protocol: To obtain I-LtrI-DNA co-crystals, the DNA oligonucleotides (5′-[…]-3′ (SEQ ID NO: 119) and 5′-[…]-3′ (SEQ ID NO:120)) were purchased from Integrated DNA Technologies ([…], standard desalting purification). The oligonucleotides were dissolved in TE buffer (10 mM Tris-HCl (pH 8.0) and 1 mM EDTA), and the complementary DNA strands were annealed by incubation at 95° C. for 10 min and slow cooling to 4° C. over a six hour period. […] The protein-DNA drops were mixed in a 1:1 volume ratio with a reservoir solution containing 100 mM Bis-Tris (pH 6.5), 200 mM magnesium chloride, and 20% (v/v) polyethylene glycol 3500 and equilibrated at 22° C. The crystals diffracted up to approximately 2.7 Å resolution at the ALS beamline 5.0.1. The data set was processed using HKL2000 package. The polyalanine model of I-OnuI/DNA complex (PDB ID: 3QQY) was used as a search model for molecular replacement. One copy of the search model was found and the structure was refined using REFMAC5. The final model was deposited in RCSB Protein Data Bank with ID code 3R7P.

The target of data set [2] is T2, I-OnuI (Ophiostoma novo-ulmi).
T2 chain: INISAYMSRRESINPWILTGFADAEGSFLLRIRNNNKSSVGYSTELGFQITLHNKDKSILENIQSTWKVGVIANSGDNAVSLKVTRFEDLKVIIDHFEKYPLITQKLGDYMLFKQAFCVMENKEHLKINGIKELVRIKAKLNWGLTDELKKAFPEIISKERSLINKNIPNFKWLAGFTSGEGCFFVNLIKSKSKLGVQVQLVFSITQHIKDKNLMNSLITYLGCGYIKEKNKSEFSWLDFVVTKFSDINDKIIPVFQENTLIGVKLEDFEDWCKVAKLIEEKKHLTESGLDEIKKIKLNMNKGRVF
Nature of the data set: structure; co-crystal structure at 2.4 A (PDB 3QQY). Conditions: tags: GST fusion (pGEX-6P-3), tag removed by PreScission protease; label: 32P (radiolabeled) in EMSA and cleavage. (Mobility shift assays separate free from complexed probe on a gel.)

B1: I-LtrI co-crystal duplex (dsDNA)
DNA 1: GGTCTAAACGTCGTATAGGAGCATTTGG
DNA 2: CAAATGCTCCTATACGACGTTTAGACCC
As for B1, the binding result in data set [1] was “binds”.

B2: I-OnuI wild-type target site (RPS3) (dsDNA)
DNA 1: TTTCCACTTATTCAACCTTTTA
DNA 2: TAAAAGGTTGAATAAGTGGAAA
With B2, the binding result in data set [2] was “binds”.

(Values after patent US20140148361, “Generation and Expression of Engineered I-ONUI Endonuclease and Its Homologues and Uses Thereof” (published 2014).)
